In article PMC9943875, “Agonist-controlled competition of RAR and VDR nuclear receptors for heterodimerization with RXR is manifested in their DNA binding” (The Journal of Biological Chemistry, 2023):

T1: mCherry-RXR (retinoid X receptor alpha, N-terminally tagged with mCherry) (UniProt P19793 1-462)
T1 sequence (looked up): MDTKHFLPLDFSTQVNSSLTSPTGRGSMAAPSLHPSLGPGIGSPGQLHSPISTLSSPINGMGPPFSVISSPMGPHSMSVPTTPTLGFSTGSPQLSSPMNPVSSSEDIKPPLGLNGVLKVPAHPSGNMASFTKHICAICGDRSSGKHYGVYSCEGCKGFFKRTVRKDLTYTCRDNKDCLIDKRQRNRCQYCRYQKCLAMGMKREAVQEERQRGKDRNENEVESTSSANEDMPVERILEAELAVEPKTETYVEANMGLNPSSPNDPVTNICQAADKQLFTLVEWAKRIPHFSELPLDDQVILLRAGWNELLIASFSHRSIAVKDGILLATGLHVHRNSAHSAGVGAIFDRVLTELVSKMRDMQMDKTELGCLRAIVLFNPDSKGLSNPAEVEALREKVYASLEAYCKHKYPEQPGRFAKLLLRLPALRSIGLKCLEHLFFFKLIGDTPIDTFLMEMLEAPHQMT


Key:
[1] = biological target: TagBFP-RXR (retinoid X receptor alpha tagged with TagBFP) (UniProt P19793)
[2] = biological target: T1, mCherry-RXR (retinoid X receptor alpha, …); assay: cell-based or functional assay
[3] = biological target: mCherry-RXR (retinoid X receptor alpha, N-terminally tagged with mCherry) (UniProt P19793)

slow fraction ρ2 of EGFP-RAR by FCS in triple-transfected cells (EGFP-RAR, mCherry-VDR, TagBFP-RXR), no ligand, against ρ2 ∼ 0.38 in cells with RAR and RXR only [1] | slow (DNA-bound) fraction ρ2 of EGFP-VDR by FCS in live HEK293 cells, mCherry-RXR coexpressed and 100 nM calcitriol added together [2] | slow (DNA-bound) fraction ρ2 of EGFP-RAR by FCS in live HEK293 cells cotransfected with mCherry-RXR, no ligand (∼22% for EGFP-RAR alone) [3] | Binder
0.32 | 2 fold |  | EGFP-VDR (vitamin D receptor, N-terminally tagged with EGFP) (receptor, UniProt P11473 1-427, looked up) MEAMAASTSLPDPGDFDRNVPRICGVCGDRATGFHFNAMTCEGCKGFFRRSMKRKALFTCPFNGDCRITKDNRRHCQACRLKRCVDIGMMKEFILTDEEVQRKREMILKRKEEEALKDSLRPKLSEEQQRIIAILLDAHHKTYDPTYSDFCQFRPPVRVNDGGGSHPSRPNSRHTPSFSGDSSSSCSDHCITSSDMMDSSSFSNLDLSEEDSDDPSVTLELSQLSMLPHLADLVSYSIQKVIGFAKMIPGFRDLTSEDQIVLLKSSAIEVIMLRSNESFTMDDMSWTCGNQDYKYRVSDVTKAGHSLELIEPLIKFQVGLKKLNLHEEEHVLLMAICIVSPDRPGVQDAALIEAIQDRLSNTLQTYIRCRHPPPGSHLLYAKMIQKLADLRSLNEEHSKQYRCLSFQPECSMKLTPLVLEVFGNEIS
 |  | 0.38 | EGFP-RAR (retinoic acid receptor alpha, N-terminally tagged with EGFP) (receptor) MASNSSSCPTPGGGHLNGYPVPPYAFFFPPMLGGLSPPGALTTLQHQLPVSGYSTPSPATIETQSSSSEEIVPSPPSPPPLPRIYKPCFVCQDKSSGYHYGVSACEGCKGFFRRSIQKNMVYTCHRDKNCIINKVTRNRCQYCRLQKCFEVGMSKESVRNDRNKKKKEVPKPECSESYTLTPEVGELIEKVRKAHQETFPALCQLGKYTTNNSSEQRVSLDIDLWDKFSELSTKCIIKTVEFAKQLPGFTTLTIADQITLLKAACLDILILRICTRYTPEQDTMTFSDGLTLNRTQMHNAGFGPLTDLVFAFANQLLPLEMDDAETGLLSAICLICGDRQDLEQPDRVDMLQEPLLEALKVYVRKRRPSRPHMFPKMLMKITDLRSISAKGAERVITLKMEIPGSMPPLIQEMLENSEGLDTLSGQPGGGGRDGGGLAPPPGSCSPSLSPSSNRSSPATHSP
